Data from patent US20220133797A1.

Target: CD19 (UniProt P15391)
Experiment: cell-based or functional assay

| Average MFI Difference (MFI of ON - MFI of OFF) (BFP reporter; no CAR stimulation) | Average MFI Difference (MFI of ON - MFI of OFF) (BFP reporter; with CAR stimulation by ALPPL2+ K562) | Average Signal To Noise (BFP reporter MFI, CD19+ K562 vs K562; no CAR stimulation) | Average Signal To Noise (BFP reporter MFI, CD19+ K562 vs K562; with CAR stimulation by ALPPL2+ K562) | Molecule |
| --- | --- | --- | --- | --- |
| 1260 MFI | 2200 MFI | 8.32 | 15.8 | KTKKQRKQMHNHLR (receptor, part only) [hingeNotch STS variant with NRG2 STS (…)] |
| 980 MFI | 2030 MFI | 2.41 | 4.78 | HRRCKHRTGK (receptor, part only) [hingeNotch STS variant with IL1R2 STS (…)] |
| 1290 MFI | 2270 MFI | 2.97 | 6.31 | RRRSKYSKAK (receptor, part only) [hingeNotch STS variant with EPHA3 STS (…)] |
| 480 MFI | 423 MFI | 1.23 | 1.71 | HPLRKRRKRKKK (receptor, part only) [hingeNotch STS variant with BTC STS (…)] |
| 1190 MFI | 1990 MFI | 12.8 | 29.2 | RRKREH (receptor, part only) [hingeNotch STS variant with Notch3 STS (RRKREH)] |

Target: CD19 (UniProt P15391)
Experiment: cell-based or functional assay
Remark: another data set of the same source

| Molecule | Average MFI Difference (MFI of ON - MFI of OFF) (BFP reporter; no CAR stimulation) | Average MFI Difference (MFI of ON - MFI of OFF) (BFP reporter; with CAR stimulation by ALPPL2+ K562) | Average Signal To Noise (BFP reporter MFI, CD19+ K562 vs K562; no CAR stimulation) | Average Signal To Noise (BFP reporter MFI, CD19+ K562 vs K562; with CAR stimulation by ALPPL2+ K562) |
| --- | --- | --- | --- | --- |
| hingeNotch STS variant with AGER STS (RRQRR) (receptor) | 1130 MFI | 1790 MFI | 11.9 | 106 |
| hingeNotch STS variant with CDH2 STS (…) (receptor) | 1130 MFI | 2830 MFI | 2.26 | 4.24 |
| hingeNotch STS variant with CSF1R STS (KYKQKPK) (receptor) | 801 MFI | 1510 MFI | 3.09 | 5.45 |
| hingeNotch STS variant with CXCL16 STS (KRRR) (receptor) | 1290 MFI | 1690 MFI | 14.4 | 27.9 |
| hingeNotch STS variant with DAG1 STS (RKKRKGK) (receptor) | 2520 MFI | 4640 MFI | 2.82 | 7.4 |
| hingeNotch STS variant with EPCAM STS (…) (receptor) | 864 MFI | 2370 MFI | 1.64 | 2.48 |
| hingeNotch STS variant with GHR STS (KQQRIK) (receptor) | 141 MFI | -51.5 MFI | 2.22 | 2.67 |
| hingeNotch STS variant with Jag2 STS (…) (receptor) | 1320 MFI | 3320 MFI | 5.09 | 21.4 |
| hingeNotch STS variant with KCNE3 STS (RSRKVDKR) (receptor) | 976 MFI | 1900 MFI | 9.78 | 62.5 |
| hingeNotch STS variant with KL STS (KKGRRSYK) (receptor) | 880 MFI | 1570 MFI | 3.72 | 6.53 |
| hingeNotch STS variant with LRP1B STS (…) (receptor) | 1010 MFI | 2560 MFI | 2.32 | 10.3 |
| hingeNotch STS variant with NRG1 STS (…) (receptor) | 806 MFI | 637 MFI | 9.42 | 25 |
| hingeNotch STS variant with Notch 2 STS (KRKRKH) (receptor) | 1260 MFI | 4190 MFI | 5.24 | 15.5 |
| hingeNotch STS variant with Notch 4 STS (RRRREH) (receptor) | 1020 MFI | 1480 MFI | 10.3 | 24.1 |
| hingeNotch STS variant with PTPRF STS (KRKRTH) (receptor) | 1180 MFI | 2570 MFI | 10.5 | 50.8 |
